Results reported in US10272135B2, “Apolipoprotein O and fragments thereof for inducing apoptosis in a cancerous cell” (INSERM (INSTITUT NATIONAL DE LA SANTÉ ET DE LA RECHERCHE …, priority 2014, dated 2019).

Key:
cyclophilin-D and/or ANT = experiment: Blue Native Page and GST pull-down with heart mitochondria protein extracts; assay type: binding, mouse; conditions: BN-PAGE and GST-ApoO pull-down (FIGS. 5A and B)
From the text: (A) One-dimensional BN-PAGE gel analysis of mitochondrial protein complexes from mouse heart. (1): Coomassie blue staining of the 4-13% polyacrylamide one-dimensional gradient blue native gel. (2): Ponceau S staining of the transferred PVDF membrane. ApoO, ANT and CypD were detected using enhanced chemiluminescence of the transferred PVDF membranes with ApoO, ANT or CypD antibodies respectively. ApoO, ANT and CypD were detected in the same complex (black rectangle).
(B) Western blot analysis of ApoO-GST pull-down. Upper panel: Ponceau S staining of the transferred membrane used to control loading and transfer. […]
After ethical committee approval, all patients in this study gave written consent for sample collection and molecular analysis prior to inclusion. […] All ApoO sequences within the expression vectors were verified by DNA double strand sequencing using ABI PRISM®BigDye™ Terminator version 3.1 Ready reaction cycle sequencing kit (Life Technologies SAS, Villebon sur Yvette) and loaded on an ABI 3130XL DNA sequencing instrument (Life Technologies SAS, Villebon sur Yvette). […]

H9c2 cardiac myoblasts = experiment: Lipid profiling (FAME, diglycerides, triglycerides, BODIPY-palmitate) in cardiac myoblasts; assay type: cell-based
From the text: After ethical committee approval, all patients in this study gave written consent for sample collection and molecular analysis prior to inclusion. Patients were carefully selected by physicians from the Department of Cardiology, Toulouse University Hospital, prior to coronary by-pass surgery. Bioinformatics. Microarray expression data from human heart samples were downloaded from the GEO repository (GSE1145). This series consisted of 107 myocardial samples collected from patients undergoing cardiac transplantation whose failure arises from different etiologies (e.g. idiopathic dilated cardiomyopathy, ischemic cardiomyopathy, valvular cardiomyopathy, and hypertrophic cardiomyopathy) and from “normal” organ donors whose hearts cannot be used for transplants. Arrays were intensity normalized and hierarchical clustering (average group linkage, Pearson correlation, threshold r=0.8) was applied to identify groups of co-expressed genes. ApoO expression levels were plotted for the 107 human hearts tested and used to define relevant molecular pathways using both Toppgene and Ingenuity Pathway Analysis (Ingenuity systems, Redwood City, Calif., USA). ApoO subcellular localization was predicted using Mitopred, mitoprot and YLoc. Animals: All animal Studies followed the INSERM Institute Animal Facility guidelines and were approved by the animal care committees of the INSERM I2MC UMR 1048. All animal procedures were performed according to the guidelines of the French Ministry of Agriculture. Animals were housed at the Toulouse I2MC animal facility in a room lit 12 h per day (6 AM-6 PM) at an ambient temperature of 22+/−1° C. […] All ApoO sequences within the expression vectors were verified by DNA double strand sequencing using ABI PRISM®BigDye™ Terminator version 3.1 Ready reaction cycle sequencing kit (Life Technologies SAS, Villebon sur Yvette) and loaded on an ABI 3130XL DNA sequencing instrument (Life Technologies SAS, Villebon sur Yvette). […]

B1: ApoO: 198-amino acid apolipoprotein, SEQ ID NO: 1; tested by overexpression from expression vectors or transgene (protein, listed as Homo sapiens)
chain: MFKVIQRSVGPASLSLLTFKVYAAPKKDSPPKNSVKVDELSLYSVPEGQSKYVEEARSQLEESISQLRHYCEPYTTWCQETYSQTKPKMQSLVQWGLDSYDYLQNAPPGFFPRLGVIGFAGLIGLLLARGSKIKKLVYPPGFMGLAASLYYPQQAIVFAQVSGERLYDWGLRGYIVIEDLWKENFQKPGNVKNSPGTK
cyclophilin-D and/or ANT
  interaction with cyclophilin-D and/or ANT: interaction
H9c2 cardiac myoblasts; ApoO expressing cells vs control (FIG. 6E)
  increase of total intracellular fatty acids: 120%
H9c2 cardiac myoblasts; ApoO expressing cells, 2 min incubation (FIG. 6D)
  accumulation of green fluorescent BODIPY-palmitate: rapid accumulation
